Where a chain is given by its changes, count along the chain named.
B1: anti-PSMA heavy chain antibody clone ID 325748 (antibody, V domains shown)
VH: QVQLVESGGGVVQPGRSLRLSCAASGFSFSSYGMHWVRQAPGKGLEGVAVIWYDGSNRYYADSVKGRFTISRDNSKNTLYLQMNSLRAEDTAVYYCAREPRIGYYYESSGYYSLDYRGQGTLVTVSS
notes: heavy chain-only antibody (UniAb), no light chain
B2: anti-PSMA heavy chain antibody clone ID 325932 (antibody, V domains shown)
VH: B1 VH
notes: as for B1
B3: anti-PSMA heavy chain antibody clone ID 345447 (antibody, V domains shown)
VH: B1 VH with W52S
notes: as for B1
B4: anti-PSMA heavy chain antibody clone ID 345482 (antibody, V domains shown)
VH: B1 VH with N74S
notes: as for B1
B5: anti-PSMA heavy chain antibody clone ID 326027 (antibody, V domains shown)
VH: B1 VH with S30R, G47W, R58K, E107D, Y112D
notes: as for B1
B6: anti-PSMA heavy chain antibody clone ID 345510 (antibody, V domains shown)
VH: B1 VH with G47W, R58K, L79M
notes: as for B1
B7: anti-PSMA heavy chain antibody clone ID 345461 (antibody, V domains shown)
VH: B1 VH with S30T
notes: as for B1
B8: anti-PSMA heavy chain antibody clone ID 345485 (antibody, V domains shown)
VH: B1 VH with S30R, G47W, R58K, L79M
notes: as for B1
B9: anti-PSMA heavy chain antibody clone ID 345438 (antibody, V domains shown)
VH: B1 VH with L45P, G47W, R58K
notes: as for B1
B10: anti-PSMA heavy chain antibody clone ID 345480 (antibody, V domains shown)
VH: B1 VH with G47W
notes: as for B1
B11: anti-PSMA heavy chain antibody clone ID 325742 (antibody, V domains shown)
VH: B1 VH with G47W, R58K, N74Y, Y112D
notes: as for B1
B12: anti-PSMA heavy chain antibody clone ID 326029 (antibody, V domains shown)
VH: B1 VH with S31R, G47W, W52S, R58K, I102V, S108T
notes: as for B1
B13: anti-PSMA heavy chain antibody clone ID 345493 (antibody, V domains shown)
VH: B1 VH with S31R, G47W
notes: as for B1
B14: anti-PSMA heavy chain antibody clone ID 325836 (antibody, V domains shown)
VH: B1 VH with S30R, G47W, R58K, N74Y, E107D, Y112D
notes: as for B1
B15: anti-PSMA heavy chain antibody clone ID 326116 (antibody, V domains shown)
VH: B1 VH with S31R, W52S, R58K, N74Y, E107D, Y112D
notes: as for B1
B16: anti-PSMA heavy chain antibody clone ID 345490 (antibody, V domains shown)
VH: B1 VH with V11L, Q13K, R16G
notes: as for B1
B17: anti-PSMA heavy chain antibody clone ID 326028 (antibody, V domains shown)
VH: B1 VH with S30R, G47W, W52S, R58K, N74Y, E107D, Y112D
notes: as for B1
B18: anti-PSMA heavy chain antibody clone ID 345443 (antibody, V domains shown)
VH: B1 VH with Y80F
notes: as for B1
B19: anti-PSMA heavy chain antibody clone ID 345421 (antibody, V domains shown)
VH: B1 VH with G8V
notes: as for B1
B20: anti-PSMA heavy chain antibody clone ID 325867 (antibody, V domains shown)
VH: B1 VH with S30R, G47W, R58K, N74Y, Y112D
notes: heavy chain-only antibody (UniAb), no light chain; also called Antibody 1
B21: anti-PSMA heavy chain antibody clone ID 345463 (antibody, V domains shown)
VH: B1 VH with S28I, S30R, L45P, G47W, R58K
notes: as for B1
B22: anti-PSMA heavy chain antibody clone ID 345444 (antibody, V domains shown)
VH: B1 VH with S28T
notes: as for B1
B23: anti-PSMA heavy chain antibody clone ID 325940 (antibody, V domains shown)
VH: B1 VH with S28I, S30R, L45P, G47W, R58K
notes: as for B1
B24: anti-PSMA heavy chain antibody clone ID 345509 (antibody, V domains shown)
VH: B1 VH with V11L, R16G, R58K, L79M
notes: as for B1
B25: anti-PSMA heavy chain antibody clone ID 345436 (antibody, V domains shown)
VH: B1 VH with S31R, R58K
notes: as for B1
B26: anti-PSMA heavy chain antibody clone ID 326084 (antibody, V domains shown)
VH: B1 VH with E107D
notes: as for B1
B27: anti-PSMA heavy chain antibody clone ID 345497 (antibody, V domains shown)
VH: B1 VH with S31R
notes: heavy chain-only antibody (UniAb), no light chain; also called HCAb 345497
B28: anti-PSMA heavy chain antibody clone ID 326087 (antibody, V domains shown)
VH: B1 VH with S28I, S30R, L45P, G47W, R58K, E107D, Y112D
notes: as for B1
B29: anti-PSMA heavy chain antibody clone ID 345505 (antibody, V domains shown)
VH: B1 VH with S28T, S30I
notes: as for B1
B30: anti-PSMA heavy chain antibody clone ID 345508 (antibody, V domains shown)
VH: B1 VH with L45P, G47W
notes: as for B1
B31: anti-PSMA heavy chain antibody clone ID 346172 (antibody, V domains shown)
VH: QLQLQESGPGLVKPSETLSLTCTVSGGSISSSSYYWGWIRQPPGKGLEWIGSIDYSGYTYYNPSLKSRVTISVDTSKNQFSLKLSSVTAADTAVYNCARHKAATADFDYRGQGTLVTVSS
notes: as for B1
B32: anti-PSMA heavy chain antibody clone ID 346181 (antibody, V domains shown)
VH: B31 VH with S33N, Y35F, P42S
notes: heavy chain-only antibody (UniAb), no light chain; also called HCAb 346181
B33: anti-PSMA heavy chain antibody clone ID 346165 (antibody, V domains shown)
VH: B31 VH with I53V, K66Q
notes: as for B1
B34: anti-PSMA heavy chain antibody clone ID 325920 (antibody, V domains shown)
VH: B31 VH with K66Q
notes: heavy chain-only antibody (UniAb), no light chain; also called Antibody 2
B35: anti-PSMA heavy chain antibody clone ID 326109 (antibody, V domains shown)
VH: B31 VH with S32N, P42S, I50L, D54Y, Y55D, Y58S, Y60H, T70I, V73G, N96Y
notes: as for B1

Target: T1, human PSMA (Prostate Specific Membrane Antigen, Glutamate Carboxypeptidase II) on cells (human, UniProt Q04609 1-750)
T1 construct: whole, on cells; the cell line is named under assay; also called cell surface expressed PSMA; FOLH1
Assay: flow cytometry on LNCaP cells
Protocol: Briefly, 50,000 target cells were stained with a dilution series of purified UniAbs™ for 30 minutes at 4° C. Following incubation, the cells were washed twice with flow cytometry buffer (1X PBS, 1% BSA, 0.1% NaN₃) and stained with goat F(ab')₂ anti-human IgG conjugated to R-phycoerythrin (PE) (Southern Biotech, cat. #2042-09) to detect cell-bound antibodies. After a 20-minute incubation at 4° C., the cells were washed twice with flow cytometry buffer and the mean fluorescence intensity (MFI) was measured by flow cytometry. The MFI of cells stained with secondary antibody alone were used for determination of background signal and binding of each antibody was converted to fold over background. Binding to cynomolgus PSMA positive cells was determined using the same protocol with the following modifications: the target cells were from Freestyle 293-F cells (ThermoFisher R79007) transiently transfected to express the extracellular domain of cynomolgus PSMA. In some experiments EC50 values were calculated using GraphPad Prism 7.

T1 sequence (Q04609 whole entry): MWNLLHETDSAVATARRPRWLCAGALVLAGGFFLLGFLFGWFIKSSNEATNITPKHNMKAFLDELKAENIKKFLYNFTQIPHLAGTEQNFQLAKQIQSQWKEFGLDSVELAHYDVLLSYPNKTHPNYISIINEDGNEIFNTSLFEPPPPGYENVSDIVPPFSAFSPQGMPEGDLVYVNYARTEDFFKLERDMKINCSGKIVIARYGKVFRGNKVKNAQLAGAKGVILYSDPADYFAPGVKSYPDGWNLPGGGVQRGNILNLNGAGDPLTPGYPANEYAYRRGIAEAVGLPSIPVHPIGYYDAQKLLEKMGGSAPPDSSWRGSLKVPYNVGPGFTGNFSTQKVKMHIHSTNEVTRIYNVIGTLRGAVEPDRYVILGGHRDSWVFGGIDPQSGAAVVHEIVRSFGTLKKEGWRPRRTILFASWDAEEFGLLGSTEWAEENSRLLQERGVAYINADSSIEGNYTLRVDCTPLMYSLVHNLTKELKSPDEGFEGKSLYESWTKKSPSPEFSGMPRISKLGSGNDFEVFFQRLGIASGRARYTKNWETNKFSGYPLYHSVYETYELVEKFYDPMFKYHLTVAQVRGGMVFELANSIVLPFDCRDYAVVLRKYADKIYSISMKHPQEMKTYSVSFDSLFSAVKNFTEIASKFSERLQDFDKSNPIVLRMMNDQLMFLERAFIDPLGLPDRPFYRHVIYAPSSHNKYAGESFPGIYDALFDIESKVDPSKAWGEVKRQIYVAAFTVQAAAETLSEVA

Binder	fold over the background MFI signal
B1	193 fold over background
B2	64 fold over background
B3	14 fold over background
B4	80 fold over background
B5	138 fold over background
B6	13 fold over background
B7	102 fold over background
B8	71 fold over background
B9	13 fold over background
B10	47 fold over background
B11	200 fold over background
B12	109 fold over background
B13	101 fold over background
B14	163 fold over background
B15	38 fold over background
B16	80 fold over background
B17	117 fold over background
B18	84 fold over background

Binder	fold over the background MFI signal
B19	22 fold over background
B20	210 fold over background
B21	68 fold over background
B22	23 fold over background
B23	169 fold over background
B24	37 fold over background
B25	87 fold over background
B26	125 fold over background
B27	112 fold over background
B28	129 fold over background
B29	59 fold over background
B30	55 fold over background
B31	216 fold over background
B32	264 fold over background
B33	243 fold over background
B34	282 fold over background
B35	25 fold over background
